Positions count from the first letter of the chain named. Names and notes keep the numbering of the source.

By Kd is commonly meant the free concentration of one partner at which half of the binding sites on the other are occupied at equilibrium, for simple one-to-one binding. In general, EC50 refers to the concentration at which the effect is half-maximal. A high value points to lower potency in that assay.

Assay [1] addresses fusion glycoprotein (F) of RSV B GFP (Tables 41 and 42) (respiratory syncytial virus B). Nature of the assay: cell-based or functional assay.
Assay [2] has as its target fusion glycoprotein (F) of RSV A GFP (Tables 41 and 42) (respiratory syncytial virus A). Nature of the assay: cell-based or functional assay.
Assay [3] deals with fusion glycoprotein (F) of MPV A GFP (Tables 41 and 43) (metapneumovirus A). Put plainly: cell-based or functional assay.
The target of assay [4] is fusion glycoprotein (F) of the RSV used in the GFP-based neutralization assay of Table 23 (respiratory syncytial virus). Nature of the assay: cell-based or functional assay.
Assay [5] has as its target fusion glycoprotein (F) of the MPV (non-D280N) used in the GFP-based neutralization assay of Table 23 (metapneumovirus). Nature of the assay: cell-based or functional assay.
Assay [6] deals with RSV fusion glycoprotein (RSV-F) (respiratory syncytial virus). Put plainly: biolayer interferometry (BLI), rIgG1 with M428L/N434S. On the technique in general: Biolayer interferometry detects binding as a change in optical thickness at a sensor tip.
Another assay deals with T1, DS-Cav1 RSV F (respiratory syncytial virus).
T1 construct: also called DC-VCav1
Put plainly: ELISA on DS-Cav1 RSV F. In general terms: An ELISA detects its analyte on a solid surface through an enzyme-linked reagent.

In assay [7] the target is fusion glycoprotein of the RSV used in the neutralization assay of Example 1 (respiratory syncytial virus (strain not …)). Put plainly: cell-based or functional assay.

B1: MPK104-rIgG1-LS (antibody, V domains shown)
VH: EVQLVESGGGLVKPGGSLRLSCAASGFTIDGYGMNWVRQAPGKGLEWVSSISASSNYIYYADSMKGRFTISRDNGKNSLYLQMHSLRVEDTGVYYCARAPLEPPYFDLWGRGTLVTVSS
VL: QSVLTQPPSVSGAPGQRVTISCSGGSSNIGAGYDVHWYQQVPGKGPKVLIYGNNNRPSGVPDRFSGSNFGASASLAITGLQADDEADYFCQSYDRRLGGPVFGGGTKLTVL
B1: in assay [1], the “IC50 (ng/ml), RSV B GFP neutralization” value is 5.23 ng/mL. Further, the “IC50 (ng/ml), RSV A GFP neutralization” value in assay [2] amounted to 7.44 ng/mL. The “IC50 (ng/ml), MPV A GFP neutralization” value in assay [3] turned out to be 6.79 ng/mL.

B2: MPK190-rIgG1-LS (antibody, V domains shown)
VH: EVQLVESGGGLVKPGGSLTLSCAASGFSISGYGMNWVRQAPGRGLEWVASISASSTYIYYADSMKGRFTISRDNGKTSLYLQMKSLRAEDTAVYYCARAPIEPPYFDLWGRGTLVTVSS
VL: QSVLTQPPSVSGAPGQRVTISCTGSNSNIGAGYDVHWYQHLPGKAPKVLIYGNNNRPSVVPDRFSGSNSGASASLAISGLQAEDEADYFCQSYDRRLSGPIFGGGTKLTVL
Turning to B2, in assay [1], the “IC50 (ng/ml), RSV B GFP neutralization; sample MPK190-rIgG1-LS/4B6” value is 6.39 ng/mL; the “IC50 (ng/ml), RSV B GFP neutralization; sample MPK190-rIgG1-LS/KYT” value turned out to be 3.36 ng/mL; the “IC50 (ng/ml), RSV B GFP neutralization; stressed sample MPK190-rIgG1-LS day 0” value was determined as 4.1 ng/mL; the “IC50 (ng/ml), RSV B GFP neutralization; stressed sample MPK190-rIgG1-LS day 7” value is 4.4 ng/mL. Moreover, the “IC50 (ng/ml), RSV B GFP neutralization; stressed sample MPK190-rIgG1-LS day 12 (day 13 in Table 41)” value in assay [1] was 4.51 ng/mL. In addition, in assay [2], the “IC50 (ng/ml), RSV A GFP neutralization; sample MPK190-rIgG1-LS/4B6” value was determined as 3.73 ng/mL; the “IC50 (ng/ml), RSV A GFP neutralization; sample MPK190-rIgG1-LS/KYT” value is 3.88 ng/mL; the “IC50 (ng/ml), RSV A GFP neutralization; stressed sample MPK190-rIgG1-LS day 0” value is 3.21 ng/mL; the “IC50 (ng/ml), RSV A GFP neutralization; stressed sample MPK190-rIgG1-LS day 7” value is 2.94 ng/mL. In addition, the “IC50 (ng/ml), RSV A GFP neutralization; stressed sample MPK190-rIgG1-LS day 12 (day 13 in Table 41)” value in assay [2] was 7.02 ng/mL. In addition, in assay [3], the “IC50 (ng/ml), MPV A GFP neutralization; sample MPK190-rIgG1-LS/4B6” value was determined as 6.16 ng/mL; the “IC50 (ng/ml), MPV A GFP neutralization; sample MPK190-rIgG1-LS/KYT” value was found to be 7.9 ng/mL; the “IC50 (ng/ml), MPV A GFP neutralization; stressed sample MPK190-rIgG1-LS day 0” value turned out to be 7.22 ng/mL; the “IC50 (ng/ml), MPV A GFP neutralization; stressed sample MPK190-rIgG1-LS day 7” value came out at 5.8 ng/mL. Further, the “IC50 (ng/ml), MPV A GFP neutralization; stressed sample MPK190-rIgG1-LS day 13” value in assay [3] stood at 8.39 ng/mL.

B3: MPH12-v17 (VH-FRGL-D62E/VL-D25S) (antibody, V domains shown)
VH: QVQLVESGGGLVKPGGSLRLSCAASGFTFSGFYMKWIRQAPGKGLEWVSSISASGSYTNYAESVEGRFTISRDNAKNSLYLQMNSLRAEDTAVYYCARGDSYCGASACHGEFFHKWGQGTLVTVSS
VL: QSVLTQPPSVSGAPGQRVTISCTGSSSNIGADFDVHWYQQLPGTAPKLLIYGNINRPSGVPDRFSGSRSGTSAFLAITRLQAEDEADYYCQSYDRSLHYVFGAGTKVTVL
notes: also called MPH12 VH-FRGL-D62E / MPH12 VL-D25S
Turning to B3, the “RSV IC 50 (ng/mL), GFP-based in vitro neutralization” value (shortened to “RSV IC 50 (ng/mL), GFP-based”) in assay [4] turned out to be 44.9 ng/mL. For the same molecule, the “MPV IC50 (ng/mL), GFP-based in vitro neutralization” value (“MPV IC50 (ng/mL), GFP-based” for short) in assay [5] stood at 30.4 ng/mL. For the same molecule, binding in assay [6] was put at a Kd of 0.39 nM.

B4: MPH12 VH-FRGL-S63A / MPH12 VL (antibody, V domains shown)
VH: B3 VH with E62D, S63A
VL: B3 VL with S26D
notes: MPH12 variant; VH and VL only
B4: in the assay with DS-Cav1 RSV F, it took 23.8 ng/mL to reach a half-maximal effect (EC50).

B5: MPH12-v29 (VH-FRGL-D62E/VL-S26A) (antibody, V domains shown)
VH: B3 VH
VL: B3 VL with S26D, S27A
notes: also called MPH12 VH-FRGL-D62E / MPH12 VL-S26A
Turning to B5, the “RSV IC 50 (ng/mL), GFP-based” value in assay [4] amounted to 60.3 ng/mL. The “MPV IC50 (ng/mL), GFP-based” value in assay [5] turned out to be 35.2 ng/mL. In assay [6], this molecule had a Kd of 0.34 nM.

B6: MPH12 VH-S63A / MPH12 VL (antibody, V domains shown)
VH: B3 VH with A23V, E62D, S63A, I70V, Y80F, Q82L, N84S
VL: B3 VL with S26D
notes: MPH12 variant; VH and VL only
In the assay with DS-Cav1 RSV F, B6 showed an EC50 of 35.8 ng/mL.

B7: MPH12 VH / MPH12 VL-FRGL (antibody, V domains shown)
VH: B3 VH with A23V, E62D, I70V, Y80F, Q82L, N84S
VL: B3 VL with S26D, R68K, F74S, R79G, A103T
notes: MPH12 variant; VH and VL only
In the assay with DS-Cav1 RSV F, B7 yielded an EC50 of 35.8 ng/mL.

B8: MPH12 VH-FRGL-D62E / MPH12 VL (antibody, V domains shown)
VH: B3 VH
VL: B3 VL with S26D
notes: MPH12 variant; VH and VL only
Take B8: the EC50 with DS-Cav1 RSV F worked out at 51 ng/mL.

B9: MPH12-v35 (VH-FRGL-D62E/VL-FRGL-D25S) (antibody, V domains shown)
VH: B3 VH
VL: B3 VL with R68K, F74S, R79G, A103T
On to B9, for which the “RSV IC 50 (ng/mL), GFP-based” value in assay [4] came out at 57.5 ng/mL. Also, the “MPV IC50 (ng/mL), GFP-based” value in assay [5] was 39.9 ng/mL. This molecule yielded a Kd in assay [6] of 0.46 nM.

B10: MPH12 VH / MPH12 VL-S26A (antibody, V domains shown)
VH: B3 VH with A23V, E62D, I70V, Y80F, Q82L, N84S
VL: B3 VL with S26D, S27A
notes: MPH12 variant; VH and VL only
In turn, B10 returned an EC50 in the assay with DS-Cav1 RSV F of 50.8 ng/mL.

B11: MPH12 VH-FRGL-S63A / MPH12 VL-FRGL (antibody, V domains shown)
VH: B3 VH with E62D, S63A
VL: B3 VL with S26D, R68K, F74S, R79G, A103T
notes: MPH12 variant; VH and VL only
B11: in the assay with DS-Cav1 RSV F, the EC50 was 15.3 ng/mL. This EC50 is about 3.3-fold lower than that of the molecule before.

B12: MPH12 VH-FRGL-S63A / MPH12 VL-D25E (antibody, V domains shown)
VH: B3 VH with E62D, S63A
VL: B3 VL with S26E
notes: MPH12 variant; VH and VL only
B12 gave a half-maximal effective concentration (EC50) with DS-Cav1 RSV F of 36.8 ng/mL.

B13: MPH12 VH-FRGL-D62E / MPH12 VL-D25E (antibody, V domains shown)
VH: B3 VH
VL: B3 VL with S26E
notes: MPH12 variant; VH and VL only
Molecule B13 returned an EC50 with DS-Cav1 RSV F of 39.7 ng/mL.

B14: MPH12 VH-S63A / MPH12 VL-S26A (antibody, V domains shown)
VH: B3 VH with A23V, E62D, S63A, I70V, Y80F, Q82L, N84S
VL: B3 VL with S26D, S27A
notes: MPH12 variant; VH and VL only
As for B14, the EC50 in the assay with DS-Cav1 RSV F amounted to 25.8 ng/mL.

B15: MPH12 VH-FRGL-D62E / MPH12 VL-FRGL (antibody, V domains shown)
VH: B3 VH
VL: B3 VL with S26D, R68K, F74S, R79G, A103T
notes: MPH12 variant; VH and VL only
B15 returned an EC50 in the assay with DS-Cav1 RSV F of 34.9 ng/mL.

B16: MPH12-v34 (VH-FRGL-S63A/VL-FRGL-D25S) (antibody, V domains shown)
VH: B3 VH with E62D, S63A
VL: B3 VL with R68K, F74S, R79G, A103T
Turning to B16, in assay [4], the “RSV IC 50 (ng/mL), GFP-based” value is 48.6 ng/mL. For the same molecule, the “MPV IC50 (ng/mL), GFP-based” value in assay [5] was found to be 31.9 ng/mL. Moreover, the Kd in assay [6] was found to be 0.5 nM.

B17: MPH12 VH / MPH12 VL-D25S (antibody, V domains shown)
VH: B3 VH with A23V, E62D, I70V, Y80F, Q82L, N84S
VL: B3 VL
notes: MPH12 variant; VH and VL only
In the assay with DS-Cav1 RSV F, B17 yielded an EC50 of 23.5 ng/mL.

B18: MPH12-rIgG1-LS (antibody, V domains shown)
VH: B3 VH with A23V, E62D, I70V, Y80F, Q82L, N84S
VL: B3 VL with S26D
Take B18: the “IC50 (ng/ml), RSV B GFP neutralization” value in assay [1] was determined as 5.23 ng/mL. Besides, the “IC50 (ng/ml), RSV A GFP neutralization” value in assay [2] amounted to 6.55 ng/mL. Moreover, the “IC50 (ng/ml), MPV A GFP neutralization” value in assay [3] is 13 ng/mL.

B19: MPH12 VH / MPH12 VL-D25E (antibody, V domains shown)
VH: B3 VH with A23V, E62D, I70V, Y80F, Q82L, N84S
VL: B3 VL with S26E
notes: MPH12 variant; VH and VL only
Consider B19, for which, in the assay with DS-Cav1 RSV F, the EC50 is 43.8 ng/mL.

B20: MPK169-v2 (antibody, V domains shown)
VH: EVQLVQSGAEVKKPGESLTISCQTSGYSFINYWIGWVRQMPGKGLEWMGVIYPFDSDTEYSPSFRGHVTISADKSINTAYLQWNSLGASDTAMYYCARFTFGIALVSGDVNGEGHAFDVWGRGTLVTVSS
VL: EIVLTQSPPTLSVSPGQRATLSCRASQSVADKLAWYQQRPGQAPRLLIYGASSRATGVPARFSGSGSETEFTLTITSLQSEDFALYYCHQYNNWPHAFGQGTRLVIK
On to B20, for which, in assay [7], the “RSV Neutralization - IC50” value is 1.4 ng/mL.

B21: MPK77-rIgG1-LS (antibody, V domains shown)
VH: EVQLVESGGGLVKPGGSLRLSCAASKSFSGYYMIWIRQAPGRGLEWIADISGSSTYTDYADSVKGRFTISRDNTRNTLYLQMNSLRPEDTAVYYCATEQVPSPGPFDLWGPGTLVTVSS
VL: QSVLTQPPSVSGAPGQRVIISCTGSSSNIGAGYDVHWYQQFPGTSPKLLIYRNTNRPSGVPDRFSGFKSGASAALAITGLQAEDEADYYCQSYDRSLSGWAFGGGTKVTVL
B21: the “IC50 (ng/ml), RSV B GFP neutralization” value in assay [1] came to 7.32 ng/mL. Further, in assay [2], the “IC50 (ng/ml), RSV A GFP neutralization” value worked out at 6.77 ng/mL. Further, the “IC50 (ng/ml), MPV A GFP neutralization” value in assay [3] was determined as 12.9 ng/mL.

The record behind these values is patent publication US20260028391A1 (HUMABS BIOMED, published 2026).
